Tests used:
[1] = target: KRAS4B GTPase domain (residues 1-173, C118S), un-phosphorylated (human) (UniProt P01116)
[2] = target: Src-phosphorylated 15N-KRAS (residues 1-173, C118S), not separated (human) (UniProt P01116)
[3] = target: KRAS4B GTPase domain (residues 1-173, C118S), un-phosphorylated (human) (UniProt P01116); remark: listed apart in the source
[4] = target: Src-phosphorylated 15N-KRAS (residues 1-173, C118S), not separated (human) (UniProt P01116); remark: listed apart in the source

Row | Substance | fold acceleration of nucleotide exchange (GDP to GTPγS) of KRAS by SOS^cat at a ratio of 1:600, real-time NMR [1] [fold] | fold acceleration of nucleotide exchange (GDP to GTPγS) of pKRAS by SOS^cat at a ratio of 1:600, real-time NMR [2] [fold] | acceleration of the rate of GTP hydrolysis of KRAS by the RASA1 GAP domain at a 1:3000 molar ratio, real-time NMR [3] [%] | increase of the rate of GTP hydrolysis of pKRAS by the RASA1 GAP domain at a 1:3000 molar ratio, real-time NMR [4] [%]
1 | catalytic domain of Son of Sevenless 1 (SOS^cat, residues 564-1049) (from UniProt Q07889 564-1049) (domain or fragment) | 17 | < 3 | – | –
2 | GAP domain of human RASA1 (residues 715-1074) (domain or fragment) | – | – | > 300 | < 20

Reference: paper PMC6333830
